From US20090220527A1 (MEDLMMUNE, published 2009) come the findings set out here.

In test [1] the target is T1, human EphA2 (form used in the affinity measurements not stated) (human, UniProt P29317 24-534, limits assumed).
T1 construct: The only EphA2 reagent it describes is human EphA2-Fc
The experiment in a line: method not stated; humanized clone from framework shuffling, reference chimeric Fab EA2.

In test [2] the target is T1, human EphA2 (form used in the affinity …). The experiment in a line: surface plasmon resonance (BIAcore 3000), purified scFv. The protocol:
2A4, 2E7 and 12E2 as well as parental EA2 scFv and humanized 4H5 scFv were induced for expression in E. coli in a 1 L culture volume. The supernatants containing soluble, secreted scFv fragments were spun to remove cellular debris then passed over an anti-FLAG column (Sigma) to purify and isolate the variant proteins. The purified affinity optimized variants were analyzed by surface plasmon resonance detection using a BIAcore 3000 instrument (Pharmacia Biosensor, Uppsala, Sweden). […] (see FIG. 5).

T1 sequence (P29317 24-534 limits assumed): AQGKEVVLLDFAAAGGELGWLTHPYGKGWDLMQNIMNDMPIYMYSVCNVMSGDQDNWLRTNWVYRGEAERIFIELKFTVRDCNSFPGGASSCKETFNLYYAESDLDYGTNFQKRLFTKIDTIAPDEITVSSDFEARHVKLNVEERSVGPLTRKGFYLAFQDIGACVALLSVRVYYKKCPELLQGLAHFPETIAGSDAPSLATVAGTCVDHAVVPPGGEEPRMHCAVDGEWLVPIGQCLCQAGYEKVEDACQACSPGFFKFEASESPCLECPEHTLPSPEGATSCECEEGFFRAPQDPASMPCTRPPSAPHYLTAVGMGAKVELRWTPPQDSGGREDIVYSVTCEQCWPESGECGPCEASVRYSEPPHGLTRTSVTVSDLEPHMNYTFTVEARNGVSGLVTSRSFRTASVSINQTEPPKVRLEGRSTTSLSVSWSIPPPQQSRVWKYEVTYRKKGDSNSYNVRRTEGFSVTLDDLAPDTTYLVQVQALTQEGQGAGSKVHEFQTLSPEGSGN

B1: humanized clone 4H5 (from framework shuffling of murine mAb EA2; format in this comparison not stated) (antibody, V domains shown)
VH: QVQLLESGGGLVQPGGSLRLSCAASGFTFSSYTMSWVRQAPGQALEWMGTISSGGTYTYYPDSVKGRFTISRDNAKNSLYLQMNSLRAEDTAVYYCAREAIFTYWGRGTLVTVSS
VL: DIQLTQSPSSLSASVGDRVTITCKASQDINNYLSWYQQKPGQAPRLLIYRANRLVDGVPDRFSGSGYGTDFTLTINNIESEDAAYYFCLKYDVFPYTFGQGTKVEIK
notes: Compared with chimeric Fab EA2; also called humanized Mab 4H5
B1: the “fold increase of affinity against chimeric Fab EA2” value in test [1] is ~20 fold.

B2: 2A4 scFv (affinity optimized combinatorial variant of humanized 4H5) (scFv)
scFv: QVQLLESGGGLVQPGGSLRLSCAASGFTFSSYTMSWVRQAPGQALEWMGTISSRGTYTYYPDSVKGRFTISRDNAKNSLYLQMNSLRAEDTAVYYCAREAIFTHWGRGTLVTVSSGGGGSGGGGSGGGGSDIQLTQSPSSLSASVGDRVTITCKASQDINNYHSWYQQKPGQAPRLLIYRANRLVDGVPDRFSGSGYGTDFTLTINNIESEDAAYYFCLKYNVFPYTFGQGTKVEIK
As to B2, in test [2], binding was characterised by a dissociation constant (Kd) of 5.6 nM and the kon stood at 652000 M⁻¹ s⁻¹.

B3: 12E2 scFv (affinity optimized combinatorial variant of humanized 4H5) (scFv)
scFv: QVQLLESGGGLVQPGGSLRLSCAASGFTFSSYTMSWVRQAPGQALEWMGTISSRGTYTYYPDSVKGRFTISRDNAKNSLYLQMNSLRAEDTAVYYCAREAIFTYWGRGTLVTVSSGGGGSGGGGSGGGGSDIQLTQSPSSLSASVGDRVTITCKASQDINNYLSWYQQKPGQAPRLLIYRANRLFDGVPDRFSGSGYGTDFTLTINNIESEDAAYYFCLKYDRFPYTFGQGTKVEIK
The molecule B3 gave a kon in test [2] of 518000 M⁻¹ s⁻¹.

B4: 2E7 scFv (affinity optimized combinatorial variant of humanized 4H5) (scFv)
scFv: QVQLLESGGGLVQPGGSLRLSCAASGFTFSSYTMSWVRQAPGQALEWMGTISSRGTYTYYPDSVKGRFTISRDNAKNSLYLQMNSLRAEDTAVYYCAREAIFTHWGRGTLVTVSSGGGGSGGGGSGGGGSDIQLTQSPSSLSASVGDRVTITCKASQDINNYGSWYQQKPGQAPRLLIYRANRLVDGVPDRFSGSGYGTDFTLTINNIESEDAAYYFCLKYNRFPYTFGQGTKVEIK
The molecule B4 yielded a kon in test [2] of 563000 M⁻¹ s⁻¹.
